Source: publication PMC8425125, “Regulation of wound ethylene biosynthesis by NAC transcription factors in kiwifruit”

Legend:
Assay in all cases: EMSA; ~2.5 ug protein, 0.9 pmol probe in 20 uL; 5 mM HEPES-KOH pH 7.6, 30 mM NaCl, 0.2 mM DTT, 0.02 mM EDTA, 0.8 ug salmon sperm DNA, 0.2 ug poly(dI-dC); room temperature 15 min; 4% native PAGE, 0.5x TBE (printed 0.5% w/v), 5% glycerol, pH 8.3, 4 C
Conditions in all cases: protein: recombinant; tags: N-terminal MBP (pMAL-c2x); chain copies: 2; label: 3'-biotin; blunt
[1] = target: AcNAC4 DNA-binding domain (Actinidia chinensis, UniProt A0A075ECR2 1-182)
Chain of AcNAC4 DNA-binding domain (A0A075ECR2 entry or part of it): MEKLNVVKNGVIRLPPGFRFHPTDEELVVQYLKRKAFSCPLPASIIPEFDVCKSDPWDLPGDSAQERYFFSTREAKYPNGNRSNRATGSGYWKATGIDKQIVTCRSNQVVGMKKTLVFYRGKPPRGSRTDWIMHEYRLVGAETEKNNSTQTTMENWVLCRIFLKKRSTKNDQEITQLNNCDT

[2] = target: AcNAC2 DNA-binding domain (Actinidia chinensis, UniProt A0A075EAR8 1-182)
Chain of AcNAC2 DNA-binding domain (A0A075EAR8 entry or part of it): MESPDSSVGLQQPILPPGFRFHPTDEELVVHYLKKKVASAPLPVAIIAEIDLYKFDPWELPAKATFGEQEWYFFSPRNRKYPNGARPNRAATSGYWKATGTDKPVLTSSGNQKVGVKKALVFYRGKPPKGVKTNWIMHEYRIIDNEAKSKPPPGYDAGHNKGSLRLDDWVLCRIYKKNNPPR

[3] = target: AcNAC1 DNA-binding domain (Actinidia chinensis, UniProt A0A075EB52 1-182)
Chain of AcNAC1 DNA-binding domain (A0A075EB52 entry or part of it): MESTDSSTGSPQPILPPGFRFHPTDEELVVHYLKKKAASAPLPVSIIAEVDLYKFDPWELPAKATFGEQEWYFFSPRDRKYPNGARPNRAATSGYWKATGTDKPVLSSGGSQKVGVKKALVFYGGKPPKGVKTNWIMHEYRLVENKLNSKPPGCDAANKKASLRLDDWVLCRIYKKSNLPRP

[4] = target: AcNAC3 DNA-binding domain (Actinidia chinensis, UniProt A0A075EC91 1-182)
Chain of AcNAC3 DNA-binding domain (A0A075EC91 entry or part of it): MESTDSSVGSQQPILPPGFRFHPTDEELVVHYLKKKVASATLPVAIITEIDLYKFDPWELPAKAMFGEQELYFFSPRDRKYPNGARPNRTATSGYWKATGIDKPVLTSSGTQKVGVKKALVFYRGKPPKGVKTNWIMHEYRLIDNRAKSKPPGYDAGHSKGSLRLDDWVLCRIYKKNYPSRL

| Binder | binding result [1] | binding result [2] | binding result [3] | binding result [4] |
| --- | --- | --- | --- | --- |
| AcACS1 probe N1MUT (Mut) (dsDNA) DNA 1: CATCGATCCATCTGTCAACCACATAAC DNA 2: GTTATGTGGTTGACAGATGGATCGATG | no binding | no binding | no binding | no binding |
| AcACS1 probe N1 (Wt) (dsDNA) DNA 1: CATTATACGTATAGTCAACCACATAAC DNA 2: GTTATGTGGTTGACTATACGTATAATG | binds | binds | binds | binds |
